# Assay results reported in PMC10113255, “PHF14 enhances DNA methylation of SMAD7 gene to promote TGF-β-driven lung adenocarcinoma metastasis”.
# T1: PHF14 ePHD domain E430A K435A (Homo sapiens, UniProt O94880 382-499, E430A;K435A)
# T1 sequence: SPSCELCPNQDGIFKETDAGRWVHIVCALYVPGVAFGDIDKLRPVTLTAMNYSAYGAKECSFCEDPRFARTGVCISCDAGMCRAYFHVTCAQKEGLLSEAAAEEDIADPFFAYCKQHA
# B1: CG-rich probe, unmethylated (dsDNA)
# DNA 1: ACGGCTCGTCGCTACGGCTCGTCGCT
# DNA 2: AGCGACGAGCCGTAGCGACGAGCCGT
# Target: T1, PHF14 ePHD domain E430A K435A
# Assay: SPR; protein immobilized on CM5; SPR: HBS-P (10 mM HEPES pH 7.4, 150 mM NaCl, 0.05% P20), 25 °C, 1:1 Langmuir fit; EMSA: LightShift kit protocol, 0.5x TBE native PAGE, buffer not stated
# Conditions: protein: recombinant; tags: His (EMSA, purification method); FLAG (SPR); label: biotin (EMSA); blunt
binder,measurement,value
B1,Kd,0.275 µM
